Here are results for 3 molecules from paper doi:10.1101/2025.03.03.641048 (2025).

First the molecules themselves.
B1: mouse ZP2 N-terminal ZP-N1 domain (mZP2-N1), His-tagged (domain or fragment)
chain: VSLPQSENPAFPGTLICDKDEVRIEFSSRFDMEKWNPSVVDTLGSEILNCTYALDLERFVLKFPYETCTIKVVGGYQVNIRVGDTTTDVRYKDDMYHFFCPAIQ
B2: rZP2-N1 S113R (domain or fragment)
chain: SLPQSENPAFPGTLICDKDEVRVEFSSRFDMEKWNPSLVDTFGNEISSCTYALDLEKFILKFPYETCTIKVIGGYQVNIRVQDTNADVRYKDDVHHFFCPAIQ

The test addresses IE-3 fragment antigen-binding (Fab) region, recombinant, labelled (labeled with the Blue-NHS labeling kit (chain not told) | labeled with the Blue-NHS labeling kit (chain not told)). In words: MST.
As to B1, the dissociation constant Kd amounted to 0.3 nM.
With B2 the figure was 16.3 nM; with TIKVVGGYQVNIRVGDTTTDVRYKDDMYHFFCPAIQ (domain or fragment) [mZP2 T103-Q138 linear epitope fused to maltose-binding protein], 8.9 nM.
